Measurements reported in article PMC4169579, “Proteolytic Activity of Prostate-Specific Antigen (PSA) towards Protein Substrates and Effect of Peptides Stimulating PSA Activity” (PLoS ONE, 2014).
Where “and” joins values, the source holds several entries; their conditions need not be identical. Identical values can stand only once.

Key:
[1] = tested on: HUVECs; assay: HUVEC tube formation assay on Matrigel; type: cell-based, human; details: two separate experiments
Method: Human umbilical vein endothelial cells (HUVECs) were isolated from umbilical cord veins and grown in Endothelial Cell Growth Medium (Promocell, Heidelberg, Germany) with 2% Ultroser G BioSepra serum substitute (PALL BioSepra, Cergy, France) and growth factors EGF and bFGF. For tube formation, HUVECs were grown on top of Matrigel (BD Biosciences) as described previously, [29].
To study the effect of PSA-cleaved protein fragments, 0.08 µM nidogen-1 or 0.4 µM galectin-3 (10 µg/ml each) were first incubated with 1 µM PSA for 24 h at 37°C in PBS (Lonza). Then PSA activity was blocked by one-hour incubation at room temperature with 2 µM monoclonal antibody 5C7 [38]. The mixture containing nidogen-1 or galectin-3 fragments with PSA blocked by antibody or the same amount of intact nidogen-1 or galectin-3 were added together with the cells onto gelled Matrigel and the cells were allowed to form tubular networks for 20 h. Control wells contained either PBS or 1 µM PSA. After overnight incubation, cell culture medium was collected from PBS and PSA control wells for SDS-PAGE and Western blotting. Images of tubular networks (100×magnification) were taken using an Axiovert 200 inverted light microscope connected to an AxioCam digital camera and visualized by AxioVision software (all from Zeiss, Göttingen, Germany).

[2] = biological target: T1, PSA (Homo sapiens, UniProt P07288); assay: Proteolytic cleavage of protein substrates by PSA (SDS-PAGE, silver staining); type: biochemical; details: 37°C; for time for degradation of half of the intact protein: substrate 1 µM (0.5 µM semenogelin I)
T1 construct: from tissue; host or cells: pooled human seminal fluid
Method: The major form of active PSA (isoform PSA-B) was purified from pooled human seminal fluid by immunoaffinity chromatography followed by anion exchange chromatography. Semenogelins I and II were isolated from human seminal fluid as previously described, but instead of alkylating the proteins, the reducing agent 30 mM dithiothreitol (Sigma-Aldrich, St. Louis, MO) was included in all buffers during purification. Semenogelins were stored in the purification buffer containing 2 M urea and 5 mM EDTA at −70°C. Prior to cleavage by PSA, the buffer was exchanged to 50 mM Tris, pH 7.7, containing 0.15 M NaCl (TBS), with Amicon Ultra centrifugal filter units (MW cut-off 30 kDa) (Millipore, Cork, Ireland) at 4°C, and protein concentration was determined by measuring absorbance at 280 nm.
Protein LoBind tubes (Eppendorf AG, Hamburg, Germany) were used in all protein degradation experiments.
PSA (0.2–1 µM) and 0.5–1 µM of each protein substrate were incubated at 37°C for 22 h in TBS buffer. During the incubation, samples of 15 µl were taken at different time points: 0 min, 10 min, 30 min, 2 h, 5 h and 22 h, and stored at −20°C before further analysis.
Immediately after each incubation, reducing 4× SDS-loading buffer (8% SDS), containing 1 M β-mercaptoethanol or 75 mM dithiothreitol, was added to each sample and proteins were denatured at 70°C for 10 min. The samples were immediately analyzed by SDS-PAGE or frozen at −20°C. Frozen samples were heated again at 70°C before loading on the gel. The cleavage of protein substrates by PSA, i.e., the disappearance of the full-length protein bands, was quantified from scanned images of silver stained gels by the measurement of relative optical densities of the protein bands using ImageJ [40].
Proteins were separated using the XCell SureLock Mini Cell system and pre-cast NuPAGE Novex 4–12% Bis-Tris Gels (both from Invitrogen, Carlsbad, CA). MES running buffer, pH 7.3, containing 50 mM MES [2-(N-morpholino)ethanesulfonic acid] (Sigma-Aldrich), 50 mM Tris base, 3.5 mM SDS and 1 mM EDTA was used. Dithiothreitol (0.5 mM) (Sigma-Aldrich) was added to the cathode buffer chamber.
Proteins were visualized either by silver staining or Western blotting. For silver staining (modified from), the gel was fixed for one hour at room temperature in 30% ethanol, containing 0.5% acetic acid, and rinsed with 20% ethanol and water for 10 min each. Then the gel was sensitized with 0.02% sodium thiosulfate for 1 min and rinsed twice with water. After 30 min incubation in 0.2% AgNO3, the gel was rinsed briefly with water and proteins were detected with development solution, containing 700 µl/l of 37% formaldehyde, 0.001% sodium thiosulfate and 3% anhydrous Na2CO3. The development reaction was finished with stop solution containing 5% Tris and 2.5% acetic acid.

[3] = biological target: T1, PSA; assay: N-terminal sequencing of nidogen-1 fragments generated by PSA; type: biochemical; details: recombinant human nidogen-1, 1 µM, 2 µM PSA, 22 h, 37°C; Edman degradation; UniProt P14543 numbering
Method: For N-terminal sequencing, 1 µM (10 µg) nidogen-1 was first incubated with 2 µM (5 µg) PSA for 22 h at 37°C. Then the resulting protein fragments were separated by SDS-PAGE and electroblotted onto polyvinylidene-difluoride (PVDF) membrane. After staining with Coomassie Brilliant Blue the protein fragments were directly sequenced by Edman-degradation using the Procise 494A Sequencer (Perkin Elmer Applied Biosystems, Foster City, CA).

[4] = biological target: T1, PSA; details: more than half of semenogelin I degraded; ref Malm and coworkers (2000), [16], [63]; cited from earlier work
Method: In the present study, we compared the proteolytic activity of PSA towards several protein substrates. As shown previously, semenogelins are cleaved very effectively by PSA. Malm and coworkers (2000) reported that more than half of semenogelin I is degraded after 15 min incubation with PSA [16], [63] and we observed this after 11 min incubation. Proteolysis of the other protein substrates, i.e., fibronectin, IGFBP-3, galectin-3 and nidogen-1, took much longer, reflecting the high substrate specificity of PSA for semenogelins. […] However, the detailed mechanism of the antiangiogenic activity of PSA remains unclear. Some of the proteolytically produced fragments of extracellular matrix (ECM) proteins act as endogenous angiogenesis inhibitors and may mediate the antiangiogenic effect of PSA. […] Although plasminogen ...

[5] = 0.2 µM PSA, TBS, disappearance of full-length band

T1 sequence (P07288 25-261): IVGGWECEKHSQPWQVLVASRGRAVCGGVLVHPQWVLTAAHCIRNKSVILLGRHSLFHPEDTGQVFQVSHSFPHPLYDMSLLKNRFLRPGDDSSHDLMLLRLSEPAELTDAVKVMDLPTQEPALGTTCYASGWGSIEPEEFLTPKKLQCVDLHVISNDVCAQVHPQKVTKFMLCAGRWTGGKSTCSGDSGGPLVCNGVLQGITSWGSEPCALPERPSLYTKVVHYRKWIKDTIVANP

B1: nidogen-1: recombinant human nidogen-1, linker protein in the basement membrane (protein, UniProt P14543 29-1247, looked up)
Nidogen-1: LSRQELFPFGPGQGDLELEDGDDFVSPALELSGALRFYDRSDIDAVYVTTNGIIATSEPPAKESHPGLFPPTFGAVAPFLADLDTTDGLGKVYYREDLSPSITQRAAECVHRGFPEISFQPSSAVVVTWESVAPYQGPSRDPDQKGKRNTFQAVLASSDSSSYAIFLYPEDGLQFHTTFSKKENNQVPAVVAFSQGSVGFLWKSNGAYNIFANDRESVENLAKSSNSGQQGVWVFEIGSPATTNGVVPADVILGTEDGAEYDDEDEDYDLATTRLGLEDVGTTPFSYKALRRGGADTYSVPSVLSPRRAATERPLGPPTERTRSFQLAVETFHQQHPQVIDVDEVEETGVVFSYNTDSRQTCANNRHQCSVHAECRDYATGFCCSCVAGYTGNGRQCVAEGSPQRVNGKVKGRIFVGSSQVPIVFENTDLHSYVVMNHGRSYTAISTIPETVGYSLLPLAPVGGIIGWMFAVEQDGFKNGFSITGGEFTRQAEVTFVGHPGNLVIKQRFSGIDEHGHLTIDTELEGRVPQIPFGSSVHIEPYTELYHYSTSVITSSSTREYTVTEPERDGASPSRIYTYQWRQTITFQECVHDDSRPALPSTQQLSVDSVFVLYNQEEKILRYALSNSIGPVREGSPDALQNPCYIGTHGCDTNAACRPGPRTQFTCECSIGFRGDGRTCYDIDECSEQPSVCGSHTICNNHPGTFRCECVEGYQFSDEGTCVAVVDQRPINYCETGLHNCDIPQRAQCIYTGGSSYTCSCLPGFSGDGQACQDVDECQPSRCHPDAFCYNTPGSFTCQCKPGYQGDGFRCVPGEVEKTRCQHEREHILGAAGATDPQRPIPPGLFVPECDAHGHYAPTQCHGSTGYCWCVDRDGREVEGTRTRPGMTPPCLSTVAPPIHQGPAVPTAVIPLPPGTHLLFAQTGKIERLPLEGNTMRKTEAKAFLHVPAKVIIGLAFDCVDKMVYWTDITEPSIGRASLHGGEPTTIIRQDLGSPEGIAVDHLGRNIFWTDSNLDRIEVAKLDGTQRRVLFETDLVNPRGIVTDSVRGNLYWTDWNRDNPKIETSYMDGTNRRILVQDDLGLPNGLTFDAFSSQLCWVDAGTNRAECLNPSQPSRRKALEGLQYPFAVTSYGKNLYFTDWKMNSVVALDLAISKETDAFQPHKQTRLYGITTALSQCPQGHNYCSVNNGGCTHLCLATPGSRTCRCPDNTLGVDCIEQK
- effect on tube formation, PSA-generated fragments ([1]; 10 µg/ml (0.08 µM nidogen-1, 0.4 µM galectin-3) precleaved by 1 µM PSA 24 h, PSA blocked by mAb 5C7, 20 h): did not have any effect on tube formation
- effect on tube formation, full-length protein ([1]; 10 µg/ml (0.08 µM nidogen-1, 0.4 µM galectin-3), 20 h, HUVECs on Matrigel): did not have any effect on tube formation
- time for degradation of 50% of the protein ([2]; 0.2 µM PSA, 1 µM substrate, TBS, disappearance of full-length band): 22 h
- size of nidogen-1 fragments formed by PSA ([2]; 1 µM PSA, 0.5 µM recombinant human nidogen-1, 20 h): 85 kDa and 55 kDa
- cleavage site of PSA in nidogen-1 [3]: GVVF^380 ↓ SYNTD

B2: semenogelin II: isolated from human seminal fluid (protein, UniProt Q02383 24-582, looked up)
Semenogelin-2: QKGGSKGQLPSGSSQFPHGQKGQHYFGQKDQQHTKSKGSFSIQHTYHVDINDHDWTRKSQQYDLNALHKATKSKQHLGGSQQLLNYKQEGRDHDKSKGHFHMIVIHHKGGQAHHGTQNPSQDQGNSPSGKGLSSQCSNTEKRLWVHGLSKEQASASGAQKGRTQGGSQSSYVLQTEELVVNKQQRETKNSHQNKGHYQNVVDVREEHSSKLQTSLHPAHQDRLQHGPKDIFTTQDELLVYNKNQHQTKNLSQDQEHGRKAHKISYPSSRTEERQLHHGEKSVQKDVSKGSISIQTEEKIHGKSQNQVTIHSQDQEHGHKENKISYQSSSTEERHLNCGEKGIQKGVSKGSISIQTEEQIHGKSQNQVRIPSQAQEYGHKENKISYQSSSTEERRLNSGEKDVQKGVSKGSISIQTEEKIHGKSQNQVTIPSQDQEHGHKENKMSYQSSSTEERRLNYGGKSTQKDVSQSSISFQIEKLVEGKSQIQTPNPNQDQWSGQNAKGKSGQSADSKQDLLSHEQKGRYKQESSESHNIVITEHEVAQDDHLTQQYNEDRNPIST
- time for degradation of half of the intact protein [2, 5]: 80 min

B3: semenogelin I: isolated from human seminal fluid (protein, UniProt P04279 24-462, looked up)
Semenogelin-1: QKGGSKGRLPSEFSQFPHGQKGQHYSGQKGKQQTESKGSFSIQYTYHVDANDHDQSRKSQQYDLNALHKTTKSQRHLGGSQQLLHNKQEGRDHDKSKGHFHRVVIHHKGGKAHRGTQNPSQDQGNSPSGKGISSQYSNTEERLWVHGLSKEQTSVSGAQKGRKQGGSQSSYVLQTEELVANKQQRETKNSHQNKGHYQNVVEVREEHSSKVQTSLCPAHQDKLQHGSKDIFSTQDELLVYNKNQHQTKNLNQDQQHGRKANKISYQSSSTEERRLHYGENGVQKDVSQSSIYSQTEEKAQGKSQKQITIPSQEQEHSQKANKISYQSSSTEERRLHYGENGVQKDVSQRSIYSQTEKLVAGKSQIQAPNPKQEPWHGENAKGESGQSTNREQDLLSHEQKGRHQHGSHGGLDIVIIEQEDDSDRHLAQHLNNDRNPLFT
- time for degradation of half of the intact protein [2, 5]: 11 min
- incubation time with more than half degraded by PSA [4]: 15 min
